This is an account of results in the domain aggregation screens of Martell et al. (2025).

A short description of the data set: soluble fraction after stress (log2 fold change); higher = more stays soluble; pooled small domains, quantitative proteomics. As to conditions: stress: 50 degC. The method in brief: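 After stress at 50°C, the amount of each protein still soluble was measured. This was done on pooled custom libraries of small protein domains, using high-throughput quantitative proteomics. The figure given is a base-two log fold change and stands for aggregation propensity, with higher values meaning more protein stays in solution.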
With “HMSNVKVYPNPTSGKLTIDAENYKGVEVYDTSGRLIVKSELRTIDLEEQSKGLYLLKVNANGTTQEFKVFK”, the “soluble fraction (log2)” value is 0.0145.

As to “HMSNYLKSVEVFDPITNKWSYVSAMKVRRGYVAVVATMDRLYAIGGYDGENYLSTVEMYNPDTN”, the “soluble fraction (log2)” value was 0.0631.

Take “HMSPAVSLITGKLGAETYYKQGLKKAKEKDYEGALDDLIKAYEFFPDKKIKTQVDKLASFLGKPPIL”: the “soluble fraction (log2)” value was found to be 0.0669.

For “HMSPIKAGDLVKITGTKYYRGQTIPSWVKAKNWFVHSVSGDRAVINKSEDGKNAIMSPVKVSNLALVT”, the “soluble fraction (log2)” value was -0.0334.

Take “HMSPILTPDQATKAYGKDGVLYIHSNKERTIYIYDVTGRTVRILEAVEGENQINGLEKGIYFLEGQKVAV”: the “soluble fraction (log2)” value is -0.233.

“HMSPLQLGNYNTLRITRFTDHGAYLDGGDVGEILMPKTYVLPEMKPGDEVRVFVYLDQEERLVGTTET”: the “soluble fraction (log2)” value was -0.017.

Consider “HMSPPVIQQGQDVRLIYKGTGFAVSNEGKALNTAADGQVARARTGGGQTVSGIARPGGIIEIT”, for which the “soluble fraction (log2)” value was 0.308.

With “HMSPQPPNQEAVRTRILDQAAHLFLTIGYAETTVRRIAGAVGIKAASLYHHFGSKDEVFESILIR”, the “soluble fraction (log2)” value was determined as 0.0413.

As to “HMSPRADRSVNLDVGETVQIDDWGADGTAQIRYRGAPWTAVLRPGHTPHPGPHRVIELVGSRLLVEP”, the “soluble fraction (log2)” value is -0.0121.

For the sequence “HMSPRAIYVTTSDLNMRMQPSPNAYKRGVAPRGTELLVVEWGDDWSKVIFEGDTAYAASRYLSYVKDEP”, the “soluble fraction (log2)” value was -0.487.

“HMSQDEVVADMKADLGPDADNIIRSNIQWADGLVRKGILTESEREELDVMGGTPEAQRILVKLRTMQG”: the “soluble fraction (log2)” value worked out at 0.0777.

As to “HMSQDTLIENGKVFLIHKVVAGQTLYGLSKAYNITIEDIIKYNPQAENGIKIGEDIKIFLKEE”, the “soluble fraction (log2)” value is -0.432.

Turning to “HMSQEHTVPDYKDMEATVVYADLTQKGLNYEIAQETSPTIKEGNVTQTIPGMNEKVVSGDTITVFVSTGTG”, the “soluble fraction (log2)” value stood at 0.193.

As for “HMSQIDLQIGHKIKSKRRKLGISQADMAKKLYISPSYLNLIESGKRKINVDLLLKLSNELGIEMSDIS”, the “soluble fraction (log2)” value was -0.478.

As to “HMSQIILSARSGHAALRHRLGELGYTFADKEFDDIYERFLEVADQKKEVYDEDLESIVQERQRD”, the “soluble fraction (log2)” value amounted to 0.0537.

Consider “HMSQITEADYIPNTDKTWGELMEETGESLPNLVERYNNEMTKSNGKEQPQSIIQRIIEDYQMVS”, for which the “soluble fraction (log2)” value is 0.0384.

“HMSQLSDEQELRDIARGIIEGNPNEAEKYRAGRTGLLGFFVGKLMAETEGKANPRLASRILKELLE”: the “soluble fraction (log2)” value is -0.0477.

For “HMSQLSQIVDAFGGLRPFARALNKPPSTVQYWIEKGGIPASVVSPIMKLSEEKGLGLSRDQVSAAVS”, the “soluble fraction (log2)” value was found to be 0.157.

Take “HMSQLTVGTVVTGNASLQTQGLKLPSFASGSRPASPNIGQMIWNSSDAKAQIWNGSEWDDVG”: the “soluble fraction (log2)” value was -0.198.

For “HMSQNVSFTVDSGQAGLRLDVFLSQADPAFSRSQIKYAIEEGDVTVNGKEPKVSQHLKDGDIVELHLE”, the “soluble fraction (log2)” value is -0.0973.

Take “HMSQQEAQLNSLVKIYESMKPKDAARIFDTLDMDVLLDVVMRMKEARSAAVLAEMTPDRAKEVTLQLAD”: the “soluble fraction (log2)” value is -0.61.

Turning to “HMSQTDQALRHLIREAWATLPQRQQQAVELAYYEGLPDTEIAARLNQPVEEVKTSIVLGMAHLREALHSY”, the “soluble fraction (log2)” value was -0.583.

With “HMSQTDTDAKDARQKILALLSDGEWHQKTELLKIDAPKEAVSNAIRYLVLEELISIDHAKVRA”, the “soluble fraction (log2)” value was -0.489.

On to “HMSQTVKYVNTTSGLNMRTGPATSYAKITTIAYGQSVNVLSTSNGWSKINYSGSTGYVSSQYLQSKKPS”, for which the “soluble fraction (log2)” value was -0.942.

Regarding “HMSQVHYAVLFKNASAAEATEIVTYARETLGVQDIKINANGDILVPEDKVEEMRVSMSIAGFPK”, the “soluble fraction (log2)” value was found to be 0.22.

For “HMSQVSTKYINVSSAYVRSKPSKDGEIVTSLIKNTDVTVTGENGDWYKIKFNNYEGYIFKELLSDSKLEE”, the “soluble fraction (log2)” value was 0.15.

As to “HMSRAMFEMHADWQPTDSIRGLLGRAGLPTDIAKLDQSRIGDFVNHWFGKPDRNTADSWNGLLVGWLKRTQ”, the “soluble fraction (log2)” value is -1.18.

Turning to “HMSREEFLAGLEEALAGEVPASVIRENLNYYNSYISQEMAKGRTVDEIVDEIGEPRIVARTIIDSSEAAGE”, the “soluble fraction (log2)” value is 0.0724.

“HMSRELVILGNSMLNNALKAFHVSPASIKKKHWDKLILDYHLESKNNILIDIALGKRINVMVAHQLTSIID”: the “soluble fraction (log2)” value was determined as 0.56.

Take “HMSREVTVPPLSGLTLRDAARTLAERGLLMEAEGQGAVHRQDPPAGTRVPTGTPVRVFLTLPEQNS”: the “soluble fraction (log2)” value turned out to be 0.333.

On to “HMSRGTLFVDVRGAVAKPGVYELPEKSRVFQAVEAAGGLLPEALERLVNQAAELTDGQQVYIPFEGEE”, for which the “soluble fraction (log2)” value came to 0.296.

As for “HMSRLLRTDAHLQYAAERGLPVTASAYTPVFAGAKQYTGRIESFDAQTIRFADGPAVERKAVARLEAE”, the “soluble fraction (log2)” value was 0.159.

Turning to “HMSRLLTTRQREVFEVATREGFWDVPRRINLSELAKVLGVAKSTLSSQLQRIESAVFHAFTDEIRRQS”, the “soluble fraction (log2)” value is -2.16.

For the sequence “HMSRMLTVKQREVFDLAMREGYWETPRRITLTMLASLLSVSKSTLSVQLHKIEGTVLSSFSDEVRRRS”, the “soluble fraction (log2)” value was -1.49.

“HMSRQDYLQTIYRLSVGKGYTTNKKIADFLSVSKPSVTEMIGKLQGEGLVAMDGAHIFLTEDGAEQ”: the “soluble fraction (log2)” value was -0.567.

On to “HMSRVTVDVNPDVLQWAIDKKGKGDIKNKFPKIDEWLNGISKPTIHQLENFAKYVSVPFGYLLLSKPPVE”, for which the “soluble fraction (log2)” value was determined as 0.276.

As to “HMSRYQDIANDIEKDIIEKKYTRKLPEQFELAQKYQTSRVTIVHALKILQNKKLIRTVKGHGTFITS”, the “soluble fraction (log2)” value was -1.4.

Regarding “HMSSDEDELESIIKRVFADNPIELERLQNGEDKLIKFFMGLVMRQTKGKYPPKIIIDLLNKS”, the “soluble fraction (log2)” value was -0.411.

As for “HMSSDLDQYMKNIRKQHNLSKREFAKQLGISAATIVRIENGITVSPSKNLISKLAYYLQKSEVEILQDIQS”, the “soluble fraction (log2)” value was -1.08.

In the case of “HMSSEMATLRSIVDNKQAEKVHGMMVDMFTASAMVQVYDKVNDENQAKMREMLKTQKGFQRMADFALSKI”, the “soluble fraction (log2)” value is -0.172.

On to “HMSSEPASLVGKTGVAASVLRPSGRVEVNGEYYDAVSINGFIEKGESVFVHKYENAQLYVSKNSE”, for which the “soluble fraction (log2)” value was 0.0445.

For “HMSSESIKTDKNVGVGSTLEELEKAYGSDYTLSGKMYRYYQDDNSKYMYFFILNDVVQYYGYGIDV”, the “soluble fraction (log2)” value is -1.53.

With “HMSSIDLTARSGRAALKHRLSLLGYEFSKIELETLYVRFIELADEKKLLHDEDLIELVKEKN”, the “soluble fraction (log2)” value was -1.37.

For the sequence “HMSSIRDVVPEGLLSDREKLVLVLAFDRDLDGPDMARTLGISANTVRVLKARALKKLRQAGIQP”, the “soluble fraction (log2)” value is -0.957.

On to “HMSSIVLTARSGRAALAYRVKSIGVDLSKDQLDLVYKTFLGFADKKKEIIDTDIPQILKASGI”, for which the “soluble fraction (log2)” value is -1.92.

In the case of “HMSSIYVYPNPTANRIYIQADNIKKAELFDLMGRKVRSTNQPQIDISRLSRGNYILQVKTQNNTQSFKIIK”, the “soluble fraction (log2)” value was -0.476.

As to “HMSSKAVLEKFEALFIDQMLQSMRKATVRSELFDSEGIKLYESLFDKEISEELAKSGGLGLTKDLEQQL”, the “soluble fraction (log2)” value was -0.888.

On to “HMSSKFKIVGEILSIKKSDILYIIEILSNNEVVKATAVEDEIKDLKIGDKILLSSKAFNPIVNK”, for which the “soluble fraction (log2)” value was -0.487.

As to “HMSSLTDNFVKALSYYLALSGKSKKEVADGIGIPPTTFSSWSNGKHLPDMDRLQNLATYLGAPVSEFFDFT”, the “soluble fraction (log2)” value was -0.0831.

On to “HMSSPVGIAQATTYVYVRAGHSMQAAKVGVLSPGEKVGVTGRSAQGFSEVVYNGVHRWVGSRYLSPT”, for which the “soluble fraction (log2)” value is -1.4.

Turning to “HMSSQWWYSAGGERKGPVDFATLRGLYVQGAIDGRTLAWREDMQGWEAVNDIPDLEPLRRAVPPEL”, the “soluble fraction (log2)” value was -0.0348.

In the case of “HMSSRSLSYSDFIERVDAGQVSKVVMDGERLVVVGQDGTSYVTIKPPGDQVTENLSRELISKGVEVEAEPQ”, the “soluble fraction (log2)” value turned out to be 0.0107.

For the sequence “HMSSRSLTYSDFIERVDAGQVDAVTLDGERIVIRAKDGNTYVAIKPQGEDVTGSLTRDLIAKGVDVEAEPQ”, the “soluble fraction (log2)” value came to 0.0928.

As to “HMSSSDYDVYNKAINLMLNLLKEPKSIEEVTASLNITKSQAITWINRALNEGKIIKTNRPVRYVVNN”, the “soluble fraction (log2)” value is -0.596.

“HMSSSYMVRITTSVLNVRKGPGTNYGITTKVKKGEVYTIVAEEKNGNTTWGKLKSGTGYISLGYTER”: the “soluble fraction (log2)” value is -1.29.

Take “HMSSSYVYGGNGEIVILSDVSKHLNVYNLNGQKVTDVNLTAGELQRISIATGIYVVGGKKIVV”: the “soluble fraction (log2)” value was -2.92.

Turning to “HMSSVGELEVGNIFEGTVNSVRGGKVLLALGNGQMVLAQMDGRVNITPGSSMFFQVKSNDGETVAIRPYTG”, the “soluble fraction (log2)” value was -0.133.

Turning to “HMSSWAEGLTERERHTLMWITKGLSNKLIARELGISDSTVKVYVKNLLRKLNVNSRLELAAWVHTHPL”, the “soluble fraction (log2)” value is -0.906.

Turning to “HMSSYTQEDVRSGILYMAQLKPRNIEEFVSTLAFSKDDIMDNLSFLVDEGFLKFDADTDTYFNPVPL”, the “soluble fraction (log2)” value is -0.214.

For the sequence “HMSTADGGYPSIVINDGRVIDTNLQKLGLDRSWLSAELKRQGKGSEKDIFLMTVNQRREVYISVKEA”, the “soluble fraction (log2)” value is -0.27.

On to “HMSTEAFLGTEGEVVLPLLPDGLGKIRLHVADQDVELPARTGGEPIQIRERVVVVRFRDGIAEVEPAP”, for which the “soluble fraction (log2)” value was 0.191.

Turning to “HMSTEDYLKTIYILESQQGVHGSDVARMLKVTRPTVSIALKALEQEGYVWMDESRLVHLTDSGLQIAKDT”, the “soluble fraction (log2)” value was -1.12.

Consider “HMSTESAHLGERMLNQALRAMHIEPDQITEAHWQKLIRDYGLKKKSEILTDIGLGKRQNVMVAHQLLAMG”, for which the “soluble fraction (log2)” value was -0.106.

On to “HMSTFKSYRGKITASSGVNIRTGAGTNYNKNGALTYNSVVTIVDEKKVSGTTWGKLADGRGWISLDYLKK”, for which the “soluble fraction (log2)” value was -0.554.

With “HMSTGGDLTQRERELLGLMARGLSNQEISKRLTIAMPTVKFHVTNILAKLHADNRTEAVLVALKNKLVAL”, the “soluble fraction (log2)” value is -0.748.

For “HMSTINGIEKYLSSGLIPYIGPKTAKRIVEKFGLDTLEIIQYNPERLKEIEGIGDKKLKKIVEAFEEQG”, the “soluble fraction (log2)” value was -0.102.

“HMSTISPNAFNFLQQNLNKFSDDAEGKMIKDILSKTTYDEYVKNEKSKTDFNSLLRRQTTTGDDNLNRYIN”: the “soluble fraction (log2)” value is 0.0247.

For the sequence “HMSTKEFTIHAGEWSYRVSQKLENLGLVSDAKKFDQYLEDNGYSSKIKIGHYTISKDADFEEIAKEIT”, the “soluble fraction (log2)” value was found to be 0.0383.
